Molecular target: human DR5 (human) (UniProt O14763)
Test: ELISA, half-log dilutions on wells coated with 1 microgram/ml human DR5, anti-mouse polyclonal antibody-HRP

Sequence of human DR5 (human) (O14763 other isoform, or with tags, fused parts or gaps limits assumed): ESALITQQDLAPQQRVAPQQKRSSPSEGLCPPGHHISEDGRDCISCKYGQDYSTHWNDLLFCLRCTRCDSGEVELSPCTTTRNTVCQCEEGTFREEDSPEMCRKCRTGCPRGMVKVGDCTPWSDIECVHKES

Substance: MAB631 (antibody)
- EC50: 0.0651 nM
